Laboratory results from PMC11441417 (Nanoscale Horizons, 2024).
Like-named read-outs stand apart in the source and are kept apart here.

Key:
Experiment in all cases: AFM single-molecule force spectroscopy
[1] = molecular target: reovirus type 1 Lang (T1L) virion (mammalian orthoreovirus type 1 Lang (T1L)) (UniProt P07939)
[2] = molecular target: T1, reovirus T1L σ3_(3)μ1_(3) heterohexamer (mammalian orthoreovirus type 1 Lang …, UniProt P07939 1-365; P11077 1-708)
T1 sequence (looked up) 1: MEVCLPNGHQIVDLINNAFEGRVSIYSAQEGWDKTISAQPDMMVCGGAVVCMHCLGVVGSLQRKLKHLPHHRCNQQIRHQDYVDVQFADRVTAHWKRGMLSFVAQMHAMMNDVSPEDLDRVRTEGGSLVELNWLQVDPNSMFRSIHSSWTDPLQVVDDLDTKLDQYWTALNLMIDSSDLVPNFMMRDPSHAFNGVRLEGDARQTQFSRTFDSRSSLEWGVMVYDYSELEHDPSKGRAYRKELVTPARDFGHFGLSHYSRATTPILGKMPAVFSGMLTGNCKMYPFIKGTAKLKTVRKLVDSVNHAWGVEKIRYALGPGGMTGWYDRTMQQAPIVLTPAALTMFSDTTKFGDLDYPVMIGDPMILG
T1 sequence (looked up) 2: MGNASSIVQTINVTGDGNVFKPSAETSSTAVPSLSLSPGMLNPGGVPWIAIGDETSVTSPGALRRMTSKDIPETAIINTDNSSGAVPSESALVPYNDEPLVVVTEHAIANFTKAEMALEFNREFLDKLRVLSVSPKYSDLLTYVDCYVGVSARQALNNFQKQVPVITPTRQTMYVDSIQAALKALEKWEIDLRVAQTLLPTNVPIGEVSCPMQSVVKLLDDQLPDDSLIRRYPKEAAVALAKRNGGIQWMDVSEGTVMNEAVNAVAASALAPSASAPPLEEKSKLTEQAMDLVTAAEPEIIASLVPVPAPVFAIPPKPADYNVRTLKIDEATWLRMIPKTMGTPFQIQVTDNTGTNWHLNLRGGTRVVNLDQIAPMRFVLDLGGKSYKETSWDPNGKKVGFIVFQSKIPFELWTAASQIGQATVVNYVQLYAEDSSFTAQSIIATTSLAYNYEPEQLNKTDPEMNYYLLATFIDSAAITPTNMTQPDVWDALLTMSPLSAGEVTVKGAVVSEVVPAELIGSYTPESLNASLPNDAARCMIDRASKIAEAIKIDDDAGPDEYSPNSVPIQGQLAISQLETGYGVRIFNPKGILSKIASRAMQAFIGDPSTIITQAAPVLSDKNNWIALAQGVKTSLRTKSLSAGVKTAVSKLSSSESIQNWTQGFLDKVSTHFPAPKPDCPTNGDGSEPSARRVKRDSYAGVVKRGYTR

[3] = molecular target: T1, reovirus T1L σ3_(3)μ1_(3) heterohexamer; remark: listed apart in the source

B1: Fc-tagged mouse NgR1 (Fc fusion)
chain: CPGACVCYNEPKVTTSCPQQGLQAVPTGIPASSQRIFLHGNRISHVPAASFQSCRNLTILWLHSNALARIDAAAFTGLTLLEQLDLSDNAQLHVVDPTTFHGLGHLHTLHLDRCGLRELGPGLFRGLAALQYLYLQDNNLQALPDNTFRDLGNLTHLFLHGNRIPSVPEHAFRGLHSLDRLLLHQNHVARVHPHAFRDLGRLMTLYLFANNLSMLPAEVLMPLRSLQYLRLNDNPWVCDCRARPLWAWLQKFRGSSSEVPCNLPQRLADRDLKRLAASDLEGCAVASGPFRPIQTSQLTDEELLSLPKCCQPDAADKASVLEPGRPASAGNALKGRVPPGDTPPGNGSGPRHINDSPFGTLPSSAEPPLTALRPGGSEPPGLPTTGPRRRPGCSRKNRTRSHCRLGQAGSGASGTGDAEGS
B1 was tested, and the Kd [1] was 93.5 nM, the koff [1] was 0.65 s⁻¹ and the kon [1] was 6.94e+06 M⁻¹ s⁻¹.

B2: His-tagged human Nogo-66 receptor 1 (amino acids 1-310) (receptor, UniProt Q9BZR6 27-310, looked up)
chain: CPGACVCYNEPKVTTSCPQQGLQAVPVGIPAASQRIFLHGNRISHVPAASFRACRNLTILWLHSNVLARIDAAAFTGLALLEQLDLSDNAQLRSVDPATFHGLGRLHTLHLDRCGLQELGPGLFRGLAALQYLYLQDNALQALPDDTFRDLGNLTHLFLHGNRISSVPERAFRGLHSLDRLLLHQNRVAHVHPHAFRDLGRLMTLYLFANNLSALPTEALAPLRALQYLRLNDNPWVCDCRARPLWAWLQKFRGSSSEVPCSLPQRLAGRDLKRLAANDLQGCA
In the case of B2, the koff [2] is reported as 3.51 ± 2.02 s⁻¹, the koff [3] is reported as 0.32 ± 0.21 s⁻¹ and the kon [3] is reported as 2.17e+06 ± 200000 M⁻¹ s⁻¹.

B3: His-tagged mouse Nogo-66 receptor 1 (amino acids 1-447) (receptor, UniProt Q99PI8 27-447, looked up)
chain: CPGACVCYNEPKVTTSCPQQGLQAVPTGIPASSQRIFLHGNRISHVPAASFQSCRNLTILWLHSNALARIDAAAFTGLTLLEQLDLSDNAQLHVVDPTTFHGLGHLHTLHLDRCGLRELGPGLFRGLAALQYLYLQDNNLQALPDNTFRDLGNLTHLFLHGNRIPSVPEHAFRGLHSLDRLLLHQNHVARVHPHAFRDLGRLMTLYLFANNLSMLPAEVLMPLRSLQYLRLNDNPWVCDCRARPLWAWLQKFRGSSSEVPCNLPQRLADRDLKRLAASDLEGCAVASGPFRPIQTSQLTDEELLSLPKCCQPDAADKASVLEPGRPASAGNALKGRVPPGDTPPGNGSGPRHINDSPFGTLPSSAEPPLTALRPGGSEPPGLPTTGPRRRPGCSRKNRTRSHCRLGQAGSGASGTGDAEGS
In the case of B3, the Kd [3] is reported as 76.8 ± 51.8 nM, the koff [3] is reported as 0.23 ± 0.12 s⁻¹ and the kon [3] is reported as 2.99e+06 ± 460000 M⁻¹ s⁻¹.
